Experimental data reported in article PMC549075.

Target: Lamb brain tubulin (lamb)

Substance	ΔOD 350 nm plateau of 15 μM tubulin at 37°C with 8 μM compound	ΔOD ratio (plateau with 8 μM compound divided by plateau of tubulin alone)	ΔOD 350 nm plateau of 15 μM tubulin at 37°C with 8 μM compound (same level as the control: not active in tubulin polymerization)
HIV-1 Tat protein, Eli strain (natural protein)	1.61 ΔOD 350 nm	5.27	
Tat Eli peptide 38-72	1.59 ΔOD 350 nm	5.2	
Tat Eli peptide 73-99		1	0.3 ΔOD 350 nm
Tat Oyi peptide 38-72 (from UniProt P20893 38-72)	0.78 ΔOD 350 nm	2.56	
Tat Oyi peptide 73-101 (from UniProt P20893 73-101)		1.01	0.31 ΔOD 350 nm
